Publication PMC10247153
Values belong to the substance of their own block, whether it stands above or below them.

What was measured:
[1] = biological target: unmodified 187 bp mononucleosome (human) (UniProt P68431); assay: native gel or EMSA; 100 nM nucleosome with various concentrations of KDM5C; 50 mM HEPES pH 7.5, 50 mM KCl, 1 mM BME, 0.01% Tween-20, 0.01% BSA, 5% sucrose; 1 hr on ice; native 7.5% PAGE at 4 °C; apparent dissociation constants from a cooperative binding fit
[2] = biological target: H3K4me3 187 bp mononucleosome (human) (UniProt P68431); assay: as above
[3] = biological target: H3K4me3 147 bp mononucleosome (human) (UniProt P68431)
[4] = biological target: H3K4me3 187 bp mononucleosome (human) (UniProt P68431)
[5] = system: KDM5C1-839 (Homo sapiens); assay: EMSA; details: EMSA: 50 mM HEPES pH 7.5, 50 mM KCl, 1 mM BME, 0.01% Tween-20, 0.01% BSA, 5% sucrose, 1 h on ice, 100 nM nucleosome or 147 bp DNA, 500 nM 20 bp DNA, gel at 4 C.; for Kd: apparent Kd
[6] = system: KDM5C1-839 D343A (Homo sapiens); assay: EMSA; details: apparent Kd, EMSA: 50 mM HEPES pH 7.5, 50 mM KCl, 1 mM BME, 0.01% Tween-20, 0.01% BSA, 5% sucrose, 1 h on ice, 100 nM nucleosome or 147 bp DNA, gel at 4 C.
[7] = system: KDM5C1-839 D87G (Homo sapiens); assay: EMSA; details: apparent Kd, EMSA: 50 mM HEPES pH 7.5, 50 mM KCl, 1 mM BME, 0.01% Tween-20, 0.01% BSA, 5% sucrose, 1 h on ice, 100 nM nucleosome or 147 bp DNA, gel at 4 C.
[8] = system: KDM5C1-839 A388P (Homo sapiens); assay: EMSA; details: apparent Kd, EMSA: 50 mM HEPES pH 7.5, 50 mM KCl, 1 mM BME, 0.01% Tween-20, 0.01% BSA, 5% sucrose, 1 h on ice, 100 nM nucleosome or 147 bp DNA, gel at 4 C.
[9] = biological target: unmodified 147 bp mononucleosome (human) (UniProt P68431); assay: native gel or EMSA; 100 nM nucleosome with various concentrations of KDM5C; 50 mM HEPES pH 7.5, 50 mM KCl, 1 mM BME, 0.01% Tween-20, 0.01% BSA, 5% sucrose; 1 hr on ice; native 7.5% PAGE at 4 °C; apparent dissociation constants from a cooperative binding fit
[10] = biological target: H3K4me3 147 bp mononucleosome (human) (UniProt P68431); assay: as above
[11] = system: KDM5C ARID K101A/R107A (Homo sapiens); assay: EMSA; details: EMSA: 50 mM HEPES pH 7.5, 50 mM KCl, 1 mM BME, 0.01% Tween-20, 0.01% BSA, 5% sucrose, 1 h on ice; 100 nM nucleosome or 147 bp DNA, 500 nM 20 bp DNA; gel at 4 C.; scale: fold reduction
[12] = system: KDM5C1-839 ΔAP A388P (Homo sapiens); assay: EMSA; details: apparent Kd; lower limit, saturation unattainable; EMSA: 50 mM HEPES pH 7.5, 50 mM KCl, 1 mM BME, 0.01% Tween-20, 0.01% BSA, 5% sucrose, 1 h on ice; 100 nM nucleosome or 147 bp DNA, 500 nM 20 bp DNA; gel at 4 C.
[13] = system: KDM5C1-839 ΔAP (Homo sapiens); assay: EMSA; details: apparent Kd, EMSA: 50 mM HEPES pH 7.5, 50 mM KCl, 1 mM BME, 0.01% Tween-20, 0.01% BSA, 5% sucrose, 1 h on ice, 100 nM nucleosome or 147 bp DNA, 500 nM 20 bp DNA, gel at 4 C.
[14] = histone H3K4me3, 500 nM 20 bp DNA
[15] = lower limit, saturation unattainable

Chain of KDM5C^1–839 (P41229 1-839): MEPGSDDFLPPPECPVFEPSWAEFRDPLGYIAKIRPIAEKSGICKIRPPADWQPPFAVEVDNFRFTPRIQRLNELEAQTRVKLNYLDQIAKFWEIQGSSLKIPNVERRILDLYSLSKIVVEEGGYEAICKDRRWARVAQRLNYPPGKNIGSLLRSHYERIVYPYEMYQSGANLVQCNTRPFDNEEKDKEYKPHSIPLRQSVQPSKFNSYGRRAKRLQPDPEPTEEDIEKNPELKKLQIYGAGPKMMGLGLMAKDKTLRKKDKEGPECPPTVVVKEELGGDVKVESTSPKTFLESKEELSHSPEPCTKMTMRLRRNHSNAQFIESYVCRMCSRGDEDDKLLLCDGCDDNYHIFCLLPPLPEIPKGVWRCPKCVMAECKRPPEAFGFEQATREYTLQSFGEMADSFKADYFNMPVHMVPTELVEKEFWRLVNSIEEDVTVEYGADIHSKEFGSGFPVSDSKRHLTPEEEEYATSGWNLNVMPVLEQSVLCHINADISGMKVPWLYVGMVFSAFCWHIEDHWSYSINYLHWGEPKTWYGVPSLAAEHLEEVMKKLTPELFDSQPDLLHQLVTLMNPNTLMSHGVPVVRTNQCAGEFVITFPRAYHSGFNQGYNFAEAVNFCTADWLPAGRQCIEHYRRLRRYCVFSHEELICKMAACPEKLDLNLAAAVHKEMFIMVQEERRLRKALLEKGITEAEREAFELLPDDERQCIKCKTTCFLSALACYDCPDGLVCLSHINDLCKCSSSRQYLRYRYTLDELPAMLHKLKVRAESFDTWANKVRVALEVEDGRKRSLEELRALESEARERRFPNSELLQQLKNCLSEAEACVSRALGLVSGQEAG

Kd [1]: 1 µM
fold gain in affinity against the H3K4me3 core nucleosome [2]: 2 fold
Substance: KDM5C^1–839 A388P (from UniProt P41229-1 1-839) (domain or fragment)

Kd [1]: 1 µM
fold gain in affinity against the H3K4me3 core nucleosome [2]: 2 fold
catalytic efficiency kmax/Km^app of demethylation of the H3K4me3 core nucleosome (TR-FRET, single turnover), increase against wild type KDM5C^1–839 [3]: 3 fold
catalytic efficiency kmax/Km^app of demethylation of the 187 bp H3K4me3 nucleosome (TR-FRET, single turnover), against wild type KDM5C^1–839 [4]: 2 fold
Substance: KDM5C^1–839 D87G (from UniProt P41229-1 1-839) (domain or fragment)

Substance: H3K4me3 187 bp nucleosome
Kd ([5]; histone H3K4me3): 7.3 µM
Kd [6, 14]: 4.7 µM
Kd [7, 14]: 1.3 µM
Kd [8, 14]: 1.8 µM

fold reduction in affinity against KDM5C^1–839 [9]: 3 fold
fold reduction in affinity against KDM5C^1–839 [10]: 3 fold
Substance: KDM5C^(1–839 ΔAP) (from UniProt P41229-1 1-82; P41229-1 379-839) (domain or fragment)

fold gain in affinity against the core (147 bp) nucleosome [1]: 3 fold
Kd [9]: 13 µM
Kd [10]: 7 µM
Kd [2]: 7 µM
Substance: KDM5C^1–839 (from UniProt P41229-1 1-839) (domain or fragment)

Substance: 147 bp 601 DNA
binding signal [11]: 22

Substance: unmodified 147 bp core nucleosome
Kd [5, 15]: > 12.5 µM
Kd ([6]; 500 nM 20 bp …): 8.4 µM
Kd [12]: > 45 µM
Kd [13, 15]: > 35 µM

Substance: H3K4me3 147 bp core nucleosome
Kd ([5]; Hill n 2.3, histone H3K4me3): 6.9 µM
Kd [6, 14]: 8.9 µM
Kd [7, 14]: 2.3 µM
Kd [8, 14]: 3.7 µM
Kd ([13]; Hill n 2.4, histone H3K4me3): 20 µM

Kd [1]: 3.2 µM
Kd [9]: 8.4 µM
Kd [10]: 8.9 µM
Kd [2]: 4.7 µM
Substance: KDM5C^1–839 D343A (from UniProt P41229-1 1-839) (domain or fragment)

Substance: unmodified 187 bp nucleosome
binding signal ([5]; scale: fold gain in affinity vs 147 bp nucleosome): 3
Kd ([6]; 500 nM 20 bp …): 3.2 µM
Kd ([7]; 500 nM 20 bp …): 1 µM
Kd ([8]; 500 nM 20 bp …): 1 µM
